Measurements reported in the RNAGym collection of RNA variant scans (doi:10.1073/pnas.2313332121).
This sample holds only a part of the variants without activity.

B1: TPR 5TU (parent)
chain: GGAUCUUCUCGAUCUAACAAAAAAGACAAAUCUGCCACAAAGCUUGAGAGCAUCUUCGGAUGCAGAGGCGGCAGCCUUCGGUGGCGCGAUAGCGCCAACGUUCUCAACUAUGACACGCAAAACGCGUGCUCCGUUGAAUGGAGUUUAUCAUG

Variants of: B1
Test: polymerase ribozyme fitness, log enrichment relative to wild type (log ratio); higher = more active; in vitro selection for triplet polymerase activity
How it was run: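 Each subunit of a heterodimeric triplet polymerase ribozyme was represented by a PCR-built, transcribed mutant library that underwent triplicate single-round in vitro selection with frozen incubation at −7 °C. Extended constructs were recovered by gel excision, streptavidin-bead capture and RT-PCR, and Illumina sequencing of input and output libraries kept genotypes with ≥10 input reads and ≥1 read per output. Fitness is the logarithm of genotype enrichment relative to wild-type enrichment, from inverse-variance-weighted replicate averages, with a logarithm base of 2.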

Variant	polymerase ribozyme fitness (log ratio)
U90A U130A	≤ -4.2
C85U A147G	-1.25
A89C A107U	≤ -4.2
A89C A107C	-4.06
C87A A119U A147C	-4.05
G84A G140U	-2.64
G84A G140A	-3.27
G84U C95U G143C	-3.33
U90C G126U	-3.66
G86A U90C U102C A137G	≤ -4.2
G84U C103U	-1.74
G88A U101G U102G A138U U139G	≤ -4.2
C85G G88A	-4.01
C87U C116A G117C C118G	-1.82
C87A A107G A115U U135C A142C	≤ -4.2
C87U C105U A107U	-3.79
C85G G136A	-1.31
G84U C95G A122U G152C	-3.55
C85A U102G A121G A122C	≤ -4.2
G86U A106C	-1.79
A89U A122U	-0.615
C85G U134A	-3.86
C85U U145C	-0.732
G84C G94A	-4.07

Variant	polymerase ribozyme fitness (log ratio)
A89G A97G A113U C118A A120C G141C	≤ -4.2
G86U G124A U148A	-3.78
C85U C108U	-3.1
A89C A150C	-3.81
G84U G133A	≤ -4.2
G88U A121C	≤ -4.2
G84U C116A	-0.432
G86A G88U G117U	≤ -4.2
C87U G141A	-0.85
C87U G141C	-1.72
C85G G92C A121C C132U U146A	≤ -4.2
G86C G126U C131A	≤ -4.2
A89U A107U G133A A142G	≤ -4.2
C87U C99G	-1.97
C87U C93U	-2.9
C85A C116G	-0.2
C85A U139G	-1.11
C87U U90C	-3.33
C87U U144G	-0.986
C85G A122G C149A	≤ -4.2
C85G C114G	-3.8
C85A G152A	-3.87
C85A G152C	-2.88
C85U U144A	-0.618

Variant	polymerase ribozyme fitness (log ratio)
G84U A120U	-2.07
G84U G124C G140U U146C	≤ -4.2
C85G C87G A98U A137G U144C	≤ -4.2
C87U C131U	1.46
C85U A91C C105U	≤ -4.2
C87U C129G	-2.63
C85A C118G	-0.907
C85A C118U	-0.342
G84U G117U A121G	-1.75
G88A C96G	-3.74
C85U C95G A119U	-1.89
C85A A119U	-2.98
C85U A115U C118A A120G	-3.37
C87U A122U	-0.5
C85U A98U	-1.49
C85A C87A C108U A121U U135C G141A U145A	≤ -4.2
C85U C103G	-3.48
C85A A120C A121U U130C U151G	≤ -4.2
C85U A98U U139A	≤ -4.2
C87A U101C	-4
G86U G133A	≤ -4.2
C85U C87G G140C	≤ -4.2
C87U C118U U135G	≤ -4.2
G86U C118U A119G	-4.19

Variant	polymerase ribozyme fitness (log ratio)
A89G C95U A142C	-2.81
C87U U102C A147C	-2.24
G84U U101G G143U	≤ -4.2
C85G U130G	≤ -4.2
G86U C99G	-3.67
A89U U90C G94U C114U G117U G133U	≤ -4.2
C85G G94A G117U G124U U135G	-3.69
C85G G92U A138U U145A	≤ -4.2
C87U G124A	-0.0826
A89U C99G A142U	-2.38
C85U U134C	-1.76
G86C A89U	-2.94
C87A A97U	≤ -4.2
A89G A110U U151A	-3.58
C85U G92U U139G	-1.29
C85G G141U U146A	-0.46
C85U C118U	-0.662
C87U C131A G140A	-3.61
C85U G94A A121C A138U	-4.08
G86C U151G	≤ -4.2
G84A U90A A121U	≤ -4.2
C85U A113G	-1.86
G86A U90G	≤ -4.2
C85G G133C	-2.86

Variant	polymerase ribozyme fitness (log ratio)
G86U C93U	-2.59
G84C U134G	≤ -4.2
G88U C108G C118U A120U	≤ -4.2
G86U A115G	-2.39
G86C C87G C108G	≤ -4.2
G88U A97U U102G G117U U139G	≤ -4.2
G84U C96A	-2.84
C87U A89U	-1.2
G86C C99U	-2.83
C87G U144G	≤ -4.2
U90C A91U C114U C118U U144G	-4.15
G84U A89U G126U	-1.58
C85A G126C	-0.131
C85A G126U	-0.409
C85G A115U A121G A142G U144G	≤ -4.2
C85G C131G G152U	≤ -4.2
C87U C116G G152U	-3.11
C85U C95A U127G	-3.88
C87A G126A	-4.04
G88U G124A G128U U135C	≤ -4.2
G86U C103A A121G	-2.73
G84A G100A A106G A113U G117U C123U A142C	≤ -4.2
G86A A89G C103G A115G G126C	≤ -4.2
C87U C123U G126U	0.848

Variant	polymerase ribozyme fitness (log ratio)
G86U A91C C99G U109G	≤ -4.2
C87A A89U	≤ -4.2
C85A C129U	-0.397
A89U C95G	-1.9
G86A U104G	-2.29
C85U G143C	-1.66
C87A C103U C108A A110C C132A	≤ -4.2
C85U G94U A97U	-0.116
G84A U102G A122U	-2.74
U90C C96U	-3.69
C85G C114A A150C	≤ -4.2
C85U U102G	-3.32
U90A C95U	≤ -4.2
C85U A142C	-1.12
C85U A98G A113U U135C	-3.59
G88U C95G U144C	≤ -4.2
A89U C96U C118U A122G U139G	-0.0743
C87G C114G A137G	≤ -4.2
C87G A107G	≤ -4.2
C85U A150C	-2.26
C85U A150G	-1.76
G84A G128U	-3.84
C87U C118U	-0.642
G84A G88A U148G	≤ -4.2

Variant	polymerase ribozyme fitness (log ratio)
C87G A91C U127G A142U	≤ -4.2
C85G A107U	≤ -4.2
G84A G86U C95A C99U U101A C123G	≤ -4.2
C85G C118G	-2.62
C87G C93U C99A U134G G141U	≤ -4.2
C85U C103G C108U A115U G143A	≤ -4.2
G88C G117C A138U G143C	≤ -4.2
C85A A97U G152A	≤ -4.2
C87U C116U C118A	-0.495
G88A C93A C123U G126U G133U G140U	≤ -4.2
G86A C123A U148G	-4.02
C85U A89C	-1.13
G88A C95A C123A	≤ -4.2
C85U A120G G124U G143C	-3.46
C85U U101G C125U	-0.351
G84U G86A U90A G100A	≤ -4.2
G84U G117U	-1.61
G84U U145A	-1.53
C85U C116G U145A	-2.57
C85A C87U	≤ -4.2
C85U C149A	≤ -4.2
C85U A120G	-1.65
C85G G141A	-2.85
